# From US20260070987A1
# Residue numbers refer to the chain shown, from its start. In names and notes the source's numbering stands.
# B1: equine IgG4 WT (antibody, part only; not given: Variable domains; allotype unconfirmed, not shown: another chain or arm of the molecule)
# constant: ASTTAPKVFPLASHSAATSGSTVALGCLVSSYFPEPVTVSWNSGALTSGVHTFPSVLQSSGLYSLSSMVTVPASSLKSQTYICNVAHPASSTKVDKKIVIKECNGGCPAECLQVGPSVFIFPPKPKDVLMISRTPTVTCVVVDVGHDFPDVQFNWYVDGVETHTATTEPKQEQFNSTYRVVSVLPIQHKDWLSGKEFKCKVNNKALPAPVERTISKPTGQPREPQVYVLAPHRDELSKNKVSVTCLVKDFYPTDIDIEWKSNGQPEPETKYSTTPAQLDSDGSYFLYSKLTVETNRWQQGTTFTCAVMHEALHNHYTEKSVSKSPGK
# B2: equine IgG4 K311A (antibody, part only; not given: variable domains, not shown: another chain or arm of the molecule)
# constant: B1 constant with K189A
# B3: equine IgG4 K311E (antibody, part only; not given: variable domains, not shown: another chain or arm of the molecule; small tags and cut ends)
# constant: B1 constant with K189E
# B4: equine IgG4 K311D (antibody, part only; not given: variable domains, not shown: another chain or arm of the molecule; small tags and cut ends)
# constant: B1 constant with K189D
# B5: equine IgG4 K311F (antibody, part only; not given: variable domains, not shown: another chain or arm of the molecule; small tags and cut ends)
# constant: B1 constant with K189F
# B6: equine IgG4 K311C (antibody, part only; not given: variable domains, not shown: another chain or arm of the molecule; small tags and cut ends)
# constant: B1 constant with K189C
# B7: equine IgG1 WT (antibody, part only; not given: Variable domains, not shown: another chain or arm of the molecule)
# constant: ASTTAPKVFALAPGCGTTSDSTVALGCLVSGYFPEPVKVSWNSGSLTSGVHTFPSVLQSSGFYSLSSMVTVPASTWTSETYICNVVHAASNFKVDKRIEPIPDNHQKVCDMSKCPKCPAPELLGGPSVFIFPPNPKDTLMITRTPEVTCVVVDVSQENPDVKFNWYMDGVEVRTATTRPKEEQFNSTYRVVSVLRIQHQDWLSGKEFKCKVNNQALPQPIERTITKTKGRSQEPQVYVLAPHPDELSKSKVSVTCLVKDFYPPEINIEWQSNGQPELETKYSTTQAQQDSDGSYFLYSKLSVDRNRWQQGTTFTCGVMHEALHNHYTQKNVSKNPGK
# B8: equine IgG1 N434V (antibody, part only; not given: variable domains, not shown: another chain or arm of the molecule)
# constant: B7 constant with N324V
# B9: equine IgG1 Y436H (antibody, part only; not given: variable domains, not shown: another chain or arm of the molecule)
# constant: B7 constant with Y326H
# B10: equine IgG1 Y436V (antibody, part only; not given: variable domains, not shown: another chain or arm of the molecule)
# constant: B7 constant with Y326V
# B11: equine IgG1 T286G (antibody, part only; not given: variable domains, not shown: another chain or arm of the molecule)
# constant: B7 constant with T174G
# B12: equine IgG1 N434H (antibody, part only; not given: Variable domains, not shown: another chain or arm of the molecule)
# constant: B7 constant with N324H
# B13: equine IgG1 T286E (antibody, part only; not given: variable domains, not shown: another chain or arm of the molecule)
# constant: B7 constant with T174E
# B14: equine IgG1 N434R (antibody, part only; not given: variable domains, not shown: another chain or arm of the molecule)
# constant: B7 constant with N324R
# B15: equine IgG1 Y436R (antibody, part only; not given: variable domains, not shown: another chain or arm of the molecule)
# constant: B7 constant with Y326R
# B16: equine IgG1 T286F (antibody, part only; not given: variable domains, not shown: another chain or arm of the molecule)
# constant: B7 constant with T174F
# B17: equine IgG1 N434G (antibody, part only; not given: variable domains, not shown: another chain or arm of the molecule)
# constant: B7 constant with N324G
# B18: equine IgG1 Y436E (antibody, part only; not given: variable domains, not shown: another chain or arm of the molecule)
# constant: B7 constant with Y326E
# B19: equine IgG1 N434K (antibody, part only; not given: variable domains, not shown: another chain or arm of the molecule)
# constant: B7 constant with N324K
# B20: equine IgG1 Y436F (antibody, part only; not given: variable domains, not shown: another chain or arm of the molecule)
# constant: B7 constant with Y326F
# B21: equine IgG1 Y436N (antibody, part only; not given: variable domains, not shown: another chain or arm of the molecule)
# constant: B7 constant with Y326N
# B22: equine IgG1 Y436T (antibody, part only; not given: variable domains, not shown: another chain or arm of the molecule)
# constant: B7 constant with Y326T
# B23: equine IgG1 Y436C (antibody, part only; not given: Variable domains, not shown: another chain or arm of the molecule)
# constant: B7 constant with Y326C
# B24: equine IgG1 N434I (antibody, part only; not given: variable domains, not shown: another chain or arm of the molecule)
# constant: B7 constant with N324I
# B25: equine IgG1 N434Y (antibody, part only; not given: Variable domains, not shown: another chain or arm of the molecule)
# constant: B7 constant with N324Y
# B26: equine IgG1 N434Q (antibody, part only; not given: variable domains, not shown: another chain or arm of the molecule)
# constant: B7 constant with N324Q
# B27: equine IgG1 N434T (antibody, part only; not given: variable domains, not shown: another chain or arm of the molecule)
# constant: B7 constant with N324T
# B28: equine IgG1 Y436S (antibody, part only; not given: Variable domains, not shown: another chain or arm of the molecule)
# constant: B7 constant with Y326S
# B29: equine IgG1 N434M (antibody, part only; not given: Variable domains, not shown: another chain or arm of the molecule)
# constant: B7 constant with N324M
# B30: equine IgG1 N434S (antibody, part only; not given: variable domains, not shown: another chain or arm of the molecule)
# constant: B7 constant with N324S
# B31: equine IgG1 Y436W (antibody, part only; not given: Variable domains, not shown: another chain or arm of the molecule)
# constant: B7 constant with Y326W
# B32: equine IgG1 Y436L (antibody, part only; not given: variable domains, not shown: another chain or arm of the molecule)
# constant: B7 constant with Y326L
# B33: equine IgG1 Y436G (antibody, part only; not given: variable domains, not shown: another chain or arm of the molecule)
# constant: B7 constant with Y326G
# B34: equine IgG1 T286D (antibody, part only; not given: variable domains, not shown: another chain or arm of the molecule)
# constant: B7 constant with T174D
# B35: equine IgG1 N434P (antibody, part only; not given: variable domains, not shown: another chain or arm of the molecule)
# constant: B7 constant with N324P
# B36: equine IgG1 Y436K (antibody, part only; not given: variable domains, not shown: another chain or arm of the molecule)
# constant: B7 constant with Y326K
# B37: equine IgG1 Y436A (antibody, part only; not given: variable domains, not shown: another chain or arm of the molecule)
# constant: B7 constant with Y326A
# B38: equine IgG1 Y436Q (antibody, part only; not given: variable domains, not shown: another chain or arm of the molecule)
# constant: B7 constant with Y326Q
# B39: equine IgG1 Y436M (antibody, part only; not given: variable domains, not shown: another chain or arm of the molecule)
# constant: B7 constant with Y326M
# B40: equine IgG1 Y436D (antibody, part only; not given: variable domains, not shown: another chain or arm of the molecule)
# constant: B7 constant with Y326D
# B41: equine IgG1 Y436I (antibody, part only; not given: variable domains, not shown: another chain or arm of the molecule)
# constant: B7 constant with Y326I
# Molecular target: equine FcRn (large alpha subunit p51) / equine beta-2-microglobulin complex, biotinylated (equine) (UniProt P30441)
# Chain of UniProt P30441 (P30441 21-118, one chain of several): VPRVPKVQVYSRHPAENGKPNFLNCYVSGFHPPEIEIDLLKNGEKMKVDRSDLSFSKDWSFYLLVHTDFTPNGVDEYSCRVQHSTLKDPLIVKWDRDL
# Test: SPR (Biacore), pH 6
row,Binder,Kd [nM]
1,B1,22.5
2,B2,24.8
3,B3,75.2
4,B4,64.3
5,B5,41.8
6,B6,23.5
7,B7,22.5
8,B8,31.2
9,B9,19.1
10,B10,9.06
11,B11,15
12,B12,4.1
13,B13,21.9
14,B14,14
15,B15,25.6
16,B16,18.5
17,B17,5.57
18,B18,33.8
19,B19,17.5
20,B20,12.5
21,B21,23.1

row,Binder,Kd [nM]
1,B22,15.2
2,B23,32.8
3,B24,44.3
4,B25,2.15
5,B26,12.8
6,B27,19.6
7,B28,13.5
8,B29,29
9,B30,10
10,B31,10.2
11,B32,12.4
12,B33,22
13,B34,23.9
14,B35,25
15,B36,18
16,B37,20.4
17,B38,14.6
18,B39,11.1
19,B40,28.4
20,B41,7.84
